The source of these data is publication PMC4406585.

Test [1] addresses anti-GBB5-H9 scFv. Nature of the test: ELISA. The settings on record: chain shown with the change; biotinylated peptides immobilized in streptavidin-coated microtiter plate wells; soluble scFv protein; parent: est. 100; read off a plot. (An ELISA detects its analyte on a solid surface through an enzyme-linked reagent.)
For test [2], the target named is anti-GBB5-A1 scFv. Nature of the test: ELISA. The settings on record: chain shown with the change; biotinylated peptides immobilized in streptavidin-coated microtiter plate wells; soluble scFv protein; parent: est. 100; read off a plot.
For test [3], the target named is anti-GBB5-H9 scFv-Fc (human). Nature of the test: SEC; size exclusion chromatography and denaturing SDS-PAGE of the purified scFv-Fc; conditions not given. On the technique in general: In gel filtration, larger molecules generally elute earlier.

anti-GBB5-A1 scFv, sequence (chain, as listed by the source, chain 1 of 2): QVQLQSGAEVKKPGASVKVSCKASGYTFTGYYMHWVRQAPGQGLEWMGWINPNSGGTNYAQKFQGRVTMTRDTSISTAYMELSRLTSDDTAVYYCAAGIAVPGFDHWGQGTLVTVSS
anti-GBB5-A1 scFv, sequence (chain, as listed by the source, chain 2 of 2): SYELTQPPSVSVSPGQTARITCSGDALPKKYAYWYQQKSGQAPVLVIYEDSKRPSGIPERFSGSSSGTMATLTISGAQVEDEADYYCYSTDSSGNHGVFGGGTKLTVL

For GSGSKLHAVELHQVAERV [GBB5 peptide (Guanine Nucleotide-Binding Protein Beta 5) D4A], the percent of parent (% signal of wild type) in test [1] is 1.9; in test [2], 0.3.

On to GSGSKLHDVELHQVAEAV [GBB5 peptide (Guanine Nucleotide-Binding Protein Beta 5) R13A], for which the percent of parent (% signal of wild type) in test [1] was 1.7; in test [2] it was 56.

In the case of GSGSALHDVELHQVAERV [GBB5 peptide (Guanine Nucleotide-Binding Protein Beta 5) K1A], the percent of parent (% signal of wild type) in test [1] came out at 74; in test [2], 0.2.

B1: anti-GBB5-H9 scFv-Fc (Fc fusion)
VH: EVQLVQSGGGLVQPGGSLRLSCAASGFTVSSNYMSWVRQAPGKGLEWVSSISSSSSYIYYADSVKGRFTISRDNAKNSLYLQMNSLRAEDTAVYYCARSYPFDYWGQGTLVTVSS
VL: NFMLTQPHSVSESPGKAVTISCTGSSGDVARNYVQWYQQRPGSAPIIVIYEDTQRPSGVPDRFSGSIDSSSNSASLTISGLTTEDEADYYCQSYDGHNVIFGGGTKLTVL
By stoichiometry N is commonly meant the number of molecules, sites or subunits per partner or assembly. On to B1, for which the stoichiometry N in test [3] amounted to 2.

For the molecule GSGSKLHDVELHQAAERV [GBB5 peptide (Guanine Nucleotide-Binding Protein Beta 5) V14A], the percent of parent (% signal of wild type) in test [1] was 55; in test [2], 51.
